In this data set the target is T1, Suc-AAPF-pNA (Bos taurus, UniProt P00766).
T1 construct: purchased Sigma Aldrich; host or cells: bovine pancreas
In words: Enzyme kinetic assay: hydrolysis of Suc-AAPF-pNA at pH 5-10 (native CT, CT-PDMAEMA conjugates). Type of data set: biochemical. How it is done:
N-Succinyl-Ala-Ala-Pro-Phe p-nitroanilide (0 to 50 μL of 9.60 mM in DMSO) was added to sodium phosphate buffer (990 to 940 μL of 100 mM, pH 5-10). Native CT or conjugates solution (10 μL of 4.0 μM) was added to the substrate solution. The initial rate of hydrolysis of the peptide substrate was monitored by recording the increase in absorption at 412 nm using a UV-VIS spectrometer. The Michaelis-Menten parameters (kcat, Km and kcat/Km) were determined by non-linear curve fitting (equation for Michaelis-Menten parameters) of plots of initial rate versus substrate concentration using the Enzfitter software.

Setting [1] is: pH 5.0, 100 mM sodium phosphate.
Setting [2] is: pH 6.0, 100 mM sodium phosphate.
Where [3] appears, read: pH 7.0, 100 mM sodium phosphate.
The mark [4] stands for this setting: pH 8.0, 100 mM sodium phosphate.
The mark [5] stands for this setting: pH 9.0, 100 mM sodium phosphate.
The mark [6] stands for this setting: pH 10.0, 100 mM sodium phosphate.

Usually Km stands for the substrate concentration at which the rate is half of its maximum. Usually kcat stands for the maximal rate divided by the concentration of active sites. On to “α-Chymotrypsin (CT) from bovine pancreas (type II) [Native CT]”, for which the Km was found to be 212 µM under setting [1]; 189 µM under setting [2]; 84.1 µM under setting [3]; 55.2 µM under setting [4]; 104 µM under setting [5]; 258 µM under setting [6]. Further, the kcat turned out to be 2.28 ± 0.36 s⁻¹ under setting [1]; 12.13 s⁻¹ under setting [2]; 21.54 s⁻¹ under setting [3]; 26.67 s⁻¹ under setting [4]; 29.49 s⁻¹ under setting [5]; 27.69 s⁻¹ under setting [6].

These data come from US9539338B2, “Polymer-based protein engineering methods to rationally tune enzyme activity, pH-dependence and stability” (Carnegie Mellon University, priority 2013, dated 2017).
